In paper PMC10397247:

Columns and labels:
4H324-AA = target: T1, 4H324-AA; test: two-hybrid library CCmax;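 note: natural log of median RNA to DNA barcode read ratio; higher means stronger binding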
T1 chain: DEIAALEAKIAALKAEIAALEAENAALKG

4H341-AA = target: T2, 4H341-AA; test: two-hybrid library CCmax; settings: mean of both orientations;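 note: natural log of median RNA to DNA barcode read ratio; higher means stronger binding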
T2 chain: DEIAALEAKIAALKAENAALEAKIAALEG

4H3974-AA = target: T3, 4H3974-AA; test: two-hybrid library CCmax; settings: mean of both orientations;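 note: natural log of median RNA to DNA barcode read ratio; higher means stronger binding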
T3 chain: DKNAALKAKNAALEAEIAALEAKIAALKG

4H380-AA = target: T4, 4H380-AA; test: two-hybrid library CCmax; settings: mean of both orientations;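 note: natural log of median RNA to DNA barcode read ratio; higher means stronger binding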
T4 chain: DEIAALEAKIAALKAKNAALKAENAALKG

4H3449-AA = target: T5, 4H3449-AA; test: two-hybrid library CCmax; settings: mean of both orientations;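 note: natural log of median RNA to DNA barcode read ratio; higher means stronger binding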
T5 chain: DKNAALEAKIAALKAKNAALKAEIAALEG

4H432-AA = target: T6, 4H432-AA; test: two-hybrid library CCmax; settings: mean of both orientations;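 note: natural log of median RNA to DNA barcode read ratio; higher means stronger binding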
T6 chain: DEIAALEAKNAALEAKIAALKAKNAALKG

4H3777-AA = target: T7, 4H3777-AA; test: two-hybrid library CCmax; settings: mean of both orientations
T7 chain: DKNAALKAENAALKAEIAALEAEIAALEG

4H3915-AA = target: T8, 4H3915-AA; test: two-hybrid library CCmax; settings: mean of both orientations
T8 chain: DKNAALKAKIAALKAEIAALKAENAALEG

4H63-AA = target: T9, 4H63-AA; test: two-hybrid library CCmax; settings: mean of both orientations
T9 chain: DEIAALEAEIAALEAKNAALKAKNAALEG

4H3619-AA = target: T10, 4H3619-AA; test: two-hybrid library CCmax; settings: mean of both orientations
T10 chain: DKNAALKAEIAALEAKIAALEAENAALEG

4H446-AA = target: T11, 4H446-AA; test: two-hybrid library CCmax; settings: mean of both orientations
T11 chain: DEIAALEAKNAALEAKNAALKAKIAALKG

4H3629-AA = target: T12, 4H3629-AA; test: two-hybrid library CCmax; settings: mean of both orientations
T12 chain: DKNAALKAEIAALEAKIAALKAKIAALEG

4H741-bA = target: T13, 4H741-bA; test: two-hybrid library CCNG1
T13 chain: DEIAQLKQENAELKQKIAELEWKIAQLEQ

4H492-bA = target: T14, 4H492-bA; test: two-hybrid library CCNG1
T14 chain: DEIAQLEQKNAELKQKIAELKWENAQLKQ

4H492-bN = target: T15, 4H492-bN; test: two-hybrid library CCNG1
T15 chain: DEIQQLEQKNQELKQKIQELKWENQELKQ

4H477-bN = target: T16, 4H477-bN; test: two-hybrid library CCNG1
T16 chain: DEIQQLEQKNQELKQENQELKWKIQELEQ

4H932-bN = target: T17, 4H932-bN; test: two-hybrid library CCNG1
T17 chain: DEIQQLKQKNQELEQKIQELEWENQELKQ

4H741-bN = target: T18, 4H741-bN; test: two-hybrid library CCNG1
T18 chain: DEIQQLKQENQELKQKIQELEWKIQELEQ

## DEIAALEAKIAALKAEIAALEAENAALKG [4H324-AA]
4H324-AA
  interaction score: 1.11
4H341-AA
  interaction score: -0.39
4H3974-AA
  interaction score: 1.2
4H380-AA
  interaction score: 0.833
4H3449-AA
  interaction score: -1.69
4H432-AA
  interaction score: -0.834
4H3777-AA
  interaction score: -1.37
4H3915-AA
  interaction score: 0.128
4H63-AA
  interaction score: -0.0237
4H3619-AA
  interaction score: 1.47
4H446-AA
  interaction score: -1.06
4H3629-AA
  interaction score: 1.36

## DEIAQLEQKNAELKQKIAELKWENAQLKQ [4H492-bA]
4H741-bA
  interaction score: -1.59
4H492-bA
  interaction score: -0.566

## DEIQQLEQKNQELKQENQELKWKIQELEQ [4H477-bN]
4H492-bN
  interaction score: -0.94
4H477-bN
  interaction score: -1.14
4H932-bN
  interaction score: -0.0984
4H741-bN
  interaction score: -1.17
